We go through two sequences from article PMC5640589.

In this data set the test system is T1, His6-SACE_3446B (Saccharopolyspora erythraea A226), ORF:3b7da887.
T1 sequence: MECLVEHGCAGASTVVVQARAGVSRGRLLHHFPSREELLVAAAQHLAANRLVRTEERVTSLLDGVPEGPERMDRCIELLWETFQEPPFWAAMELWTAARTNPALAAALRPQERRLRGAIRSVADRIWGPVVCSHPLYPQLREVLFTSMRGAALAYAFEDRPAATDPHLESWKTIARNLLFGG
As to the kind of experiment: EMSA. The settings on record: 10 mM Tris pH 7.5, 5 mM MgCl2, 50 mM EDTA ([…]. (In general: Mobility shift assays separate free from complexed probe on a gel.)

On to “GCGAGTGTCCGTTCGAGTGGCGGCTTGCGCCCGATGCTAGTCGCGGTTGATCGGCGATCGCAGGTGCACGCGGTCGATCTTGACGGCTGGCGAGAGGTGCGGGGAGGATCTGACCGACGCGGTCCACACGTGGCACCGCGATGCTGTTGTGGGCTGGACAATCGTGCCGGTTGGTAGGATCCAGCG (double strand) [ermE promoter]”, for which the binding result is on record as “no binding”.
Turning to “GCGTCCCCCTACTCGACGACCACGCAATGGGCGAACAATATAGGAAGGATCAAGAGGTTGACATCGCCTCGTCGAGCCAACGAACCTGTGAACATCTGCATGTTGACAAGATCAACGGCGGCTACCTACTGTGGTGGCCCAGTGACGGGTTGCCGCACATCGCGCTGGGGAGATTCTTTGAATTTCGCCCGTAGCACCGACCTGGAAAGCGAGCAAATGCTCCG (double strand) [eryAI promoter]”, the binding result is on record as “no binding”.
